Assay results reported in PMC7327521 (Journal of Molecular Biology, 2020).
Square brackets hold non-standard residues; d marks the D form. Ends that are not written are not given here. pY = N[C@@H](Cc1ccc(OP(=O)(O)O)cc1)C(=O)O; pT = C[C@@H](OP(=O)(O)O)[C@H](N)C(=O)O; pS = N[C@@H](COP(=O)(O)O)C(=O)O

Target: T1, tandem SH2 domain of C. glabrata Spt6 (Spt6-tSH2) (C. glabrata, UniProt Q6FLB1 1250-1444)
T1 sequence (looked up): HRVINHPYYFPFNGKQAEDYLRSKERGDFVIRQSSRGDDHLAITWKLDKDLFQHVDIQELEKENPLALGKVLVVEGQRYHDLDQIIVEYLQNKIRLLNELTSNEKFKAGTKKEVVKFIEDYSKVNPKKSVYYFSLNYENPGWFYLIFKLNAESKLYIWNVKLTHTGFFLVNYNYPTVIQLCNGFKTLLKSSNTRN
Assay: fluorescence polarisation

**Q.** With {5,6‑FAM}-PSYSP[pT]SPSYSP[pT]SPS [(pT4-CTD)2] as the binder, how does the Kd read?
**A.** 7.2 µM

**Q.** For {5,6‑FAM}-PS[pY][pS]PTSPS[pY][pS]PTSPS [(pY1pS2-CTD)2], which Kd is on record?
**A.** 0.3 µM

**Q.** With {5,6‑FAM}-PSY[pS]P[pT]SPSYSPTSPS [PS(YpSPpTSPS)(YSPTSPS)] as the binder, how does the Kd read?
**A.** 5.7 µM

**Q.** {5,6‑FAM}-PS[pY]SPTSPSYSPTSPS [PS(pYSPTSPS)(YSPTSPS)] was tested. Which Kd did it give?
**A.** 45.4 µM

**Q.** Which Kd does the source give for {5,6‑FAM}-PS[pY]SPT[pS]PS[pY]SPT[pS]PS [(pY1pS5-CTD)2] here?
**A.** 0.3 µM

**Q.** With {5,6‑FAM}-PS[pY]SPTSPS [(pY1-CTD)1] as the binder, how does the Kd read?
**A.** 38.7 µM

**Q.** How did the Kd turn out when {5,6‑FAM}-PSYSPTSPS[pY]SPTSPS [PS(YSPTSPS)(pYSPTSPS)] was run?
**A.** 36.8 µM

**Q.** Which Kd does the source give for DDDEDGYNPYTL [Nrd1 Interaction Motif (NIM) peptide from Trf4] here?
**A.** 3.3 µM
